Experimental findings from the DeepSol protein solubility set are described below.

The nature of the series: soluble on expression in E. coli; label from the status in PepcDB or PDB records.
As for “MRVVAAHENLDFDALGSMVLAGRLYPGSVLALVGGVEGVLREVLPLLEDRLDLVPASEIPLDRVREVVLVDNARPERLGPLAALVGRVPFLVYDHHPRTPGDVPAVGGRVAPVGATVSLLVPLLLERGVALDPLEATLAYAGLWEDTGGFSFPSTTPEDLEAAGHLLRQGAEVARVRDWVRPRFGEEAREILSQLLKTAHLVERKGFRLLVARAREKGYVPALAPLAHTLLDLYEADGVLLALRLGGDTLLIARSKARLDVGRWLGALGGGGHARAAFARVRGKGRALARLLETLEAFLDPEPTLGQAMTAPVETLRPTSVREALRQLEERGYGAMPVVEPLGEGVRVLGLARRRDLRKAVRLGFGDHPVEGFLVRAVVLPPSTPLSQVEPRLREAGGRVLVGERAGEGWRLLGIYTRTDLYRSAPRPEPTLAERVLKALPSGVFRVVEALREAFPEGVYLVGGAVRDALLGRSGPDLDLAVGPGVEVARVAQFLVDRFGGSYGLHYAFGTARVRLPFGLVVDLAESREEVYPYPGALPEVRRAPIARDLERRDYSVNAMAVDLGGLAFLDPYGGLRDLEARLLRPLHPLAFVEDPTRVVRGARLAARLGFRFAEEVPRLLAPALLPEVVAGASRSRLREELLLTLEEEAFYRALALLAELGALKALYGLDLPPEAPFLRLRAEEGLGEARLLLLLFHQKDPLERAAWLALPGRLREGLALLLAASRGEEVPKEALGREPLRAAFLALFPEKEAWLKAERRVLMGRDLLKLGLKPGPKVGEILRRVAEARRRGEVRSFEEELALARKLLGDGTLALPE”, the “soluble on expression in E. coli” value is listed as “soluble”.

For “MEIANKRAWREYISYEIIRLQMHQILTLFLLALAASPSQAVTDRSCGSDLSRLWLDIVFVVDNSKNMNLYNVYNTISNLFNPFVQIGTGYDDPRSTRVGFITYNWNATDVADFYKLQSYSDLSSQIQALSVTPLSRADETYIDTGLQAAINMINATGGLRDNYKKVVVLFTSKYNYYHTYPEDLTDYLKSTGVTIITVNTGGDSYTTQSLRDKIASKGMAFAMSDGNTTAELQKAVLAINCFCRPGWMQYHYPLKSDNIYSNYGVCLYRPDSAMTKFAAQSYCHSLTTNGYLVSELDQQKRAFNWDYLNSKGITINAFYNGLTNYNGTWWWDQPSGQPLWPLNPNSGAPPQRSGCVVDMKYSDGSISWTPISCTSFFRFLCESVACDTDNYCEF”, the “soluble on expression in E. coli” value is “not soluble”.

Regarding “MGSDKIHHHHHHMATLSKKIDFAIIMSVKNANPNGDPLNGNRPRTDYEGLGEITDVCLKRKIRDRLVEQYVSLKNEEEKKGQAIFVQSDDRKIDGETSLRNRAESEKNGLGKKAFGANAKKDETAKSACEKWFDVRAFGQVFAFGKGNDADGVSIPVRGPVTIQSAFSRDLVSISSTQITKSVSGEGDGKKRSSDTMGMKHRVDRGIYVTYGTMNPQLAERTGFSDKDAAVIKAILPKIFENDASSARPEGSMEVVKVLWWQHNSKSGDYSSAKVHRSLKVNPDGSYIIEPLNGLVPEEIAGF”, the “soluble on expression in E. coli” value is listed as “not soluble”. With “MMRGGMGNMNNMMKQMQKMQKEMAKAQEELGEKTVEGTAGGGMITVIANGHKQILEVKVKEEVVDPEDIEMLQDLVLAATNDALKKADELSNSTMGKFTKGLNLPGGMF”, the “soluble on expression in E. coli” value is given as “soluble”. As for “MPSPMSTLTTYSEPRGSTTYTLPAMEPSVSRLDTDMNSGLMPRYIFLTPLDSITLLASSGTLLEKPGQDIQRSSPTDSTSHSTRFIGGAPMKVATNVCFGLM”, the entry is “not soluble”; as for “MSTKYLFIYNEIREKILCNKYTMNEQLPDEMTLAKQFACSRMTIKKALDLLVSEGLIFRKRGQGTFVLSRGSSKRKLIVPERDIRGLTKISEDAHSTIDSRIIHFKLEFANEFLAEKLQVALQSPVYNIYRLRIIDGKPYVLEQTYMSTDVIPGITEDILQKSIYNYIEGKLGLHIASATKILRASSSSENEQHYLQLLPTEPVFEVEQVAYLDNGTPFEYSISRHRYDLFEFNSFALRHSS”, “not soluble”.

With “MSLESENIISAADKARILAEALPYIRRFSGSVAVIKYGGNAMTEPALKEGFARDVVLLKLVGIHPVIVHGGGPQINAMLEKVGKKGEFVQGMRVTDKEAMDIVEMVLGGHVNKEIVSMINTYGGHAVGVSGRDDHFIKAKKLLIDTPEQNGVDIGQVGTVESIDTGLVKGLIERGCIPVVAPVGVGEKGEAFNINADLVAGKLAEELNAEKLLMMTNIAGVMDKTGNLLTKLTPKRIDELIADGTLYGGMLPKIASAVEAAVNGVKATHIIDGRLPNALLLEIFTDAGIGSMILGGGEDAEGHHHHHH”, the “soluble on expression in E. coli” value is given as “soluble”. As for “SLSEGYLSGLEYWNDIHWSCASYNEQVAGEKEEETNSVATLSYSSVDETQVRSLYVSCKSSGKFISSVHSRESQHSRSQRVTVLQTNPNPVFESPNLAAVEICRDASRETYLVPSSCKSICKNYNDLQIAGGQVMAINSVTTDFPSESSFEYGPLLKSSEIPLPMEDSISTQPSDFPQKPIQRYSSYWRITSIKEKSSLQMQNPISNAVLNEYLEQKVVELYKQYIMDTVFHDSSPTQILASELIMTSVDQISLQVSREKNLETSKARDIVFSRLLQLMSTEITEISTPSLHISQYSNVNP”, the entry is “not soluble”. As for “MSKLFPGEVFANTADFDTGIRQLLPRYDEMLEVICRCLPLTSRRILDLGCGTGELSLKILQRCPDAQVIALDYSPRMLKFAQNKIVASGYKERWTGLQADFGDWAINPETLNIGNEFDACVSSLAIHHLYDEMKLQLFQRIAASLTPNGCFWNADPILPESPTLAEIYQAAREEWVSEQGSNFTEVRAKVGDSSPQGYSNPDQLATLDTHLQMLTKSGFTTVAVPWKYYGLAVFGGWVKLEHHHHHH”, the entry is “soluble”; as for “MIEIKNLTLQRGLKVLLDKANATVNPGQRVGLIGKNGTGKSSLFALIKGEITQDGGDVSIPKNWRLASVSQETPDLDISALDYVLQGDAELQAFQTALRQAEAQNDGMKQAEYHAKLEE”, “not soluble”; as for “MKTHYRTIVLSDIHLGTSSSKAKEVSNFLKNHTCDTLLLNGDIIDGWQLQKYGKWKKSHTRFFRRVIKMTEQNKTKVYYLRGNHDDFLDTILPLSFGNIHIDREYIHQGATGKMYYVVHGDVFDTVTSQLKWIAKLGDVGYTFLLWLNKHYNNYRVKRGLPYYSLSQAVKQKVKTAVSYISDFEMQLADLARSRKCDGVICGHIHQPAIKEYNGIEYLNSGDWVETLSALVETIHGEWKLIYYNQAFDEDRDSTEDADDPLFVFENMARFSKDVTIYKPRYSAFNGMNPADNLATNNQ”, “not soluble”. With “AIAGIQAEQSPQNYFEGTVSQPSSRFSTTHKGLSGGYNLGLLVKMELQHSFIGKDNGISYLETKLSGFHHLPVIP” the entry was “soluble”; with “MQRLFVYGSLGPGRPNEHLMQKIGGQWQAASLRGRLLEKGWGAGMGFPGLAIDADGEEIHGHVFVSDRLAEHWPALDEFEGSEYRRVATRVTLADGAQVDAYVYALRD”, “not soluble”. In the case of “MRGSVSQEEVKKWAESLENLINHECGLAAFKAFLKSEYSEENIDFWISCEEYKKIKSPSKLSPKAKKIYNEFISVQATKEVNLDSCTREETSRNMLEPTITCFDEAQKKIFNLMEKDSYRRFLKSRFYLDLTNPSSCGAEKQKGAKSSADCTSLVPQCAHHHHHHP”, the “soluble on expression in E. coli” value is on record as “soluble”.

For the sequence “YDTVIRNRQTNDVNYLKRLAKKFGFSETQFMTTYQSSELAANLDEERQVVSRLKINQLPAYVVTYNEQSYVIKGVLKYKEWLDIIQQITN”, the “soluble on expression in E. coli” value is “not soluble”. With “NVLLLDVTPLTLGIETFGGAFSPLIPRNTTVPVKKTEIFSTGVDGQAGVDIKVFQGERGLVRNNKLIGDLKLTGITPLPKGIPQIYVTFDIDADGIINVSAAEKSSGKQQSITVIPNSGLSEEEIAKLIEEANANRAQDNLIRQRLELISKADIMISDTENLFKRYEKLISSEKEYSNIVEDIKALRQAIKNFKANENDMSIDVNGIKKATDALQGRALKLFQSATKNQQNQGK” the entry was “soluble”.
